Assays:
[1] = target: GFP-tagged full length Shank3 S685D (rat) (rat); assay: co-IP
[2] = target: GFP-tagged full length Shank3 S685A (rat) (rat); assay: co-IP
[3] = target: GST-Shank3 (572-691) wild type, pre-phosphorylated by CaMKIIα at Ser685 (rat); assay: pull-down
GST-Shank3 (572-691) wild type, pre-phosphorylated by CaMKIIα at Ser685 (rat), sequence (Q9JLU4 572-691): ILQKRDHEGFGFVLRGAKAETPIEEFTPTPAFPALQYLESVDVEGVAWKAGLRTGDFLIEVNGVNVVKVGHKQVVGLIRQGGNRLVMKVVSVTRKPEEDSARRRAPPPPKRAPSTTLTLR

percent reduction of co-immunoprecipitated HA-ABI1 (HA/GFP) compared to WT [1]: 32% | percent reduction of co-immunoprecipitated HA-ABI1 (HA/GFP) compared to WT [2]: 37% | HA-ABI1 binding (HA/GST) relative to no CaMKII condition [3]: 148%
Substance: N-terminal HA-tagged ABI1 (Abelson interactor 1), full length (from UniProt Q8IZP0 1-508) (natural protein)

Reference: publication PMC7064404
